One assay relates to CCRF-CEM. The assay can be described thus: IC50 of nucleoside drugs and TempN polymer on CCRF-CEM cells. The assay is classed as cell-based. The note with it: Homo sapiens.
The test system of the next assay is Ramos. The assay can be described thus: IC50 of nucleoside drugs and TempN polymer on Ramos cells. The assay is classed as cell-based. The note with it: Homo sapiens. As for the experimental part: The polymer linked to the targeting protein was then mixed with Nanocargo transfection reagent according to the manufacturer's instructions (Tecrea, UK), and added to Ramos cells at a final concentration of 40 nM (polymer concentration). After 96 hours incubation in a humidified atmosphere at 37° C. (5% CO2), WST-1 reagent (Roche, UK) was added to the cells to measure cell growth inhibition (FIG. 42). […] Only when the toxic polymer is targeted to the Ramos cells via CD20 is cell growth inhibited.

For another assay, the system named is faNTP, DNA template. Nature of the assay: FANA synthesis by D4YK. The format is biochemical. As for the experimental part:
(a) FANA synthesis at reduced faNTP concentrations. […] (b) Timecourse of YtRtemp8 (encoding 98 nt incorporations) synthesis by D4YK, showing substantial full-length synthesis in only 5 min. (c) Timecourse of ApLib5 (encoding 78 nt incorporations, of which 40 are random nucleotides) synthesis by D4YK, again showing substantial full length product in only 5 min.
Not only is FANA synthesis effective at relatively low FANA-NTP (faNTP) concentrations (less than 50 μM each, compared to 250 μM each for ANA synthesis) but synthesis of both a […] incorporation tRNA and an N40 library is efficient in less than 5 minutes (FIG. 15). This rapid synthesis and toleration of a wide range of substrate concentrations is indicative of an efficient polymerase, but neither single incorporation kinetics nor processivity have been investigated for D4YK.

Assay [1] concerns arabinosyl-NTPs, DNA template. The assay can be described thus: Polymerase dilution experiment, ANA synthesis, D4K vs D4K521. The assay is classed as biochemical. The note with it: for polymerase concentration at which full-length (+57 nt) ANA product is present: 0.125 mM each arabinosyl-NTP, 1 min 94° C., 30 sec 50° C., 2 min 65° C. As for the experimental part:
In this experiment, the concentration of buffer (1× Thermopol (NEB) buffer), arabinosyl-NTPs (0.125 mM each), primer (200 nM), template (400 nM), the reaction volume ([…]) and extension conditions (1 min 94° C., 30 sec 50° C., 2 min 65° C.) were held constant.

Assay [2] has as its system arabinosyl-NTPs, DNA template. The assay can be described thus: Polymerase dilution experiment, ANA synthesis, D4 vs D4K. The format is biochemical. As for the experimental part: In this experiment, the concentration of buffer (1× Thermopol (NEB) buffer), arabinosyl-NTPs (0.25 mM each), primer (200 nM), template (400 nM), the reaction volume ([…]) and extension conditions (1 min 94° C., 30 sec 50° C., 2 min 65° C.) were held constant.

The test system of the next assay is FANA template. The assay can be described thus: FANA reverse transcriptase screen (PCR from cDNA). The format is biochemical. The note with it: judged by PCR from the cDNA. The procedure: ANA and FANA were synthesised using D4YK from DNA primers against a biotinylated template. This was captured onto streptavidin-coated paramagnetic beads and the nascent ANA or FANA strand eluted using two washes in 30 mM NaOH. The single stranded products were neutralised, ethanol precipitated and used as a template to screen a panel of commercial polymerases as well as in-house engineered polymerases for RT activity.
We have learnt that RT-521 must be removed before PCR as even low concentrations of RT-521 inhibit PCR. In this case, the reverse transcription reactions were purified by Exol (NEB) treatment to remove unextended primers and 0.05 volumes (1 μl out of 20 μl reaction) were used as template for 20 μl PCR with FastStart Taq (Roche). If the reactions had been purified by a method which removed RT-521 (e.g. silica column or phenol:chloroform extraction) the PCR for the RT-521 reaction would have been expected to be positive, as observed in other experiments (FIG. 19).

Positions count from the first letter of the chain named. Numbers in names are those of the source. Entries after “also recorded” stand apart in the source; their conditions may differ.

What is called IC50 is the concentration that inhibits the measured activity by half. Low values mean inhibition by little substance, high ones a need for much substance.

With `Nc1ccn([C@@H]2O[C@H](CO)C(O)C2O)c(=O)n1` (stereo partly drawn) [AraC, 9-beta-D-arabinofuranosyl-cytidine], the values for the IC50 in the assay on CCRF-CEM and in the assay on Ramos were 12.9 nM and 22.7 nM, respectively.
The like results for `Nc1nc2c(ncn2[C@@H]2O[C@H](CO)C(O)C2O)c(=O)[nH]1` (stereo partly drawn) [AraG, 9-beta-D-arabinofuranosyl-guanosine] were, in that order, 884 nM and approximately 100000 nM.
Regarding `Nc1nc(Cl)nc2c1ncn2[C@@H]1O[C@H](CO)[C@@H](O)[C@@H]1F` [Clofarabine, 9-beta-D-fluoroarabinosyl-2′chloroadenosine], the 50% inhibitory concentration (IC50) with CCRF-CEM came out at 20 nM; in the assay on Ramos, 18 nM.
The like results for `Nc1nc(F)nc2c1ncn2[C@@H]1O[C@H](CO)[C@@H](O)[C@@H]1O` [Fludarabine, 9-beta-D-arabinofuranosyl-2′fluoroadenosine] were, in that order, 864 nM and 1300 nM.
`Nc1ccn([C@@H]2O[C@H](CO)C(O)C2(F)F)c(=O)n1` (some centres unmarked) [GemC, 2′2′-difluorodeoxycytidine]: the figures for the IC50 in the assay on CCRF-CEM and in the assay with Ramos were 11.7 nM and 1.6 nM, respectively.

B1: D4K: Tgo polymerase with V93Q, D141A, E143A, L403P, A485L, P657T, E658Q, K659H, Y663H, E664K, D669A, K671N, T676I; SEQ ID NO:5 (protein)
chain: MILDTDYITEDGKPVIRIFKKENGEFKIDYDRNFEPYIYALLKDDSAIEDVKKITAERHGTTVRVVRAEKVKKKFLGRPIEVWKLYFTHPQDQPAIRDKIKEHPAVVDIYEYDIPFAKRYLIDKGLIPMEGDEELKMLAFAIATLYHEGEEFAEGPILMISYADEEGARVITWKNIDLPYVDVVSTEKEMIKRFLKVVKEKDPDVLITYNGDNFDFAYLKKRSEKLGVKFILGREGSEPKIQRMGDRFAVEVKGRIHFDLYPVIRRTINLPTYTLEAVYEAIFGQPKEKVYAEEIAQAWETGEGLERVARYSMEDAKVTYELGKEFFPMEAQLSRLVGQSLWDVSRSSTGNLVEWFLLRKAYERNELAPNKPDERELARRRESYAGGYVKEPERGLWENIVYPDFRSLYPSIIITHNVSPDTLNREGCEEYDVAPQVGHKFCKDFPGFIPSLLGDLLEERQKVKKKMKATIDPIEKKLLDYRQRLIKILANSFYGYYGYAKARWYCKECAESVTAWGRQYIETTIREIEEKFGFKVLYADTDGFFATIPGADAETVKKKAKEFLDYINAKLPGLLELEYEGFYKRGFFVTKKKYAVIDEEDKITTRGLEIVRRDWSEIAKETQARVLEAILKHGDVEEAVRIVKEVTEKLSKYEVPTQHLVIHKQITRALNDYKAIGPHVAVAKRLAARGIKIRPGTVISYIVLKGSGRIGDRAIPFDEFDPAKHKYDAEYYIENQVLPAVERILRAFGYRKEDLRYQKTRQVGLGAWLKPKT
modifications: Polymerase D4YK derived from T. gorgonarius
For the molecule B1, in the assay on faNTP, DNA template (97 nt incorporation tRNA and N40 library), the “time for efficient FANA synthesis” value is on record as “less than 5 minutes”. Also, the “time to substantial full-length FANA product” value with faNTP, DNA template (ApLib5 (78 nt incorporations, 40 random)) was 5 min. Moreover, the “time to substantial full-length FANA synthesis” value in the assay on faNTP, DNA template (YtRtemp8 (98 nt incorporations)) came out at 5 min. Further, the faNTP concentration down to which FANA synthesis remains robust in the assay with faNTP, DNA template (YtRtemp9 (93 nt incorporations), each faNTP) is not below 31.2 µM. In the assay with faNTP, DNA template (each faNTP, compared to 250 μM each for ANA synthesis), the “FANA-NTP concentration at which FANA synthesis is effective” value is reported as “less than 50 μM”. In addition, the “polymerase concentration at which full-length (+57 nt) ANA product is present” value in assay [1] is 18.8 nM; in assay [2] (0.25 mM each arabinosyl-NTP, 1 min 94° C., 30 sec 50° C., 2 min 65° C.) it was 18.8 nM. Besides, the “polymerase concentration for full-length ANA product relative to D4” value in assay [2] (fraction of the concentration required for D4) was “less than 1/15”.

B2: D4K521: D4K with the further mutation I521L, SEQ ID NO:7 (protein)
chain: B1 chain with I521L
modifications: Mutant polymerase D4YK with I521L mutation, derived from T. gorgonarius
On to B2, for which the “polymerase concentration at which full-length (+57 nt) ANA product is present” value in assay [1] was 2.3 nM. Besides, in assay [1] (fraction of the concentration required for D4K), the “polymerase concentration for full-length ANA product relative to D4K” value is listed as “less than 1/8”.

B3: D4: prior art TgoT-derived RNA polymerase with E664Q, SEQ ID NO:3 (protein)
chain: B1 chain with P403L, K664Q
modifications: Prior art T. gorgonarius (Tgo) derived polymerase D4 with mutated patch 10 region
Regarding B3, in assay [2] (75 nM polymerase, 0.25 mM each arabinosyl-NTP), the “full-length (+57 nt) ANA product at 75 nM polymerase” value is “no full-length product”. Further, the “full-length (+57 nt) ANA product at 300 nM polymerase” value in assay [2] (300 nM polymerase, 0.25 mM each arabinosyl-NTP) was “very little full-length”.

B4: Therminator: 9° N exo−: A485L polymerase, commercial (protein, listed as Thermococcus gorgonarius)
chain: MILDTDYITEDGKPVIRIFKKENGEFKIDYDRNFEPYIYALLKDDSAIEDVKKITAERHGTTVRVVRAEKVKKKFLGRPIEVWKLYFTHPQDVPAIRDKIKEHPAVVDIYEYDIPFAKRYLIDKGLIPMEGDEELKMLAFDIETLYHEGEEFAEGPILMISYADEEGARVITWKNIDLPYVDVVSTEKEMIKRFLKVVKEKDPDVLITYNGDNFDFAYLKKRSEKLGVKFILGREGSEPKIQRMGDRFAVEVKGRIHFDLYPVIRRTINLPTYTLEAVYEAIFGQPKEKVYAEEIAQAWETGEGLERVARYSMEDAKVTYELGKEFFPMEAQLSRLVGQSLWDVSRSSTGNLVEWFLLRKAYERNELAPNKPDERELARRRESYAGGYVKEPERGLWENIVYLDFRSLYPSIIITHNVSPDTLNREGCEEYDVAPQVGHKFCKDFPGFIPSLLGDLLEERQKVKKKMKATIDPIEKKLLDYRQRLIKILANSFYGYYGYAKARWYCKECAESVTAWGRQYIETTIREIEEKFGFKVLYADTDGFFATIPGADAETVKKKAKEFLDYINAKLPGLLELEYEGFYKRGFFVTKKKYAVIDEEDKITTRGLEIVRRDWSEIAKETQARVLEAILKHGDVEEAVRIVKEVTEKLSKYEVPPEKLVIYEQITRDLKDYKATGPHVAVAKRLAARGIKIRPGTVISYIVLKGSGRIGDRAIPFDEFDPAKHKYDAEYYIENQVLPAVERILRAFGYRKEDLRYQKTRQVGLGAWLKPKT
Regarding B4, in the assay with FANA template, the “FANA RT activity” value is “weak FANA RT activity”.

B5: RT-521: Tgo V93Q, D141A, E143A, A485L, I521L, K726R, E429G; SEQ ID NO:12 (protein)
chain: B4 chain with V93Q, D141A, E143A, E429G, I521L, K726R
modifications: T. go derived RT-521 polymerase
For B5, the “FANA RT activity” value in the assay on FANA template is listed as “does have FANA RT activity; also recorded: effective FANA reverse transcriptase”.

B6: RT-521K: Tgo V93Q, D141A, E143A, A485L, I521L, E664K, K726R, A385V; SEQ ID NO:14 (protein)
chain: B4 chain with V93Q, D141A, E143A, A385V, E429G, F445L, I521L, E664K, K726R
modifications: T. go derived polymerase designated RT-521K
For B6, the “FANA RT activity” value in the assay with FANA template is given as “robust FANA RT activity”.

B7: Dpo4: commercial DNA polymerase (protein, UniProt Q97W02 1-352, looked up)
DNA polymerase IV: MIVLFVDFDYFYAQVEEVLNPSLKGKPVVVCVFSGRFEDSGAVATANYEARKFGVKAGIPIVEAKKILPNAVYLPMRKEVYQQVSSRIMNLLREYSEKIEIASIDEAYLDISDKVRDYREAYNLGLEIKNKILEKEKITVTVGISKNKVFAKIAADMAKPNGIKVIDDEEVKRLIRELDIADVPGIGNITAEKLKKLGINKLVDTLSIEFDKLKGMIGEAKAKYLISLARDEYNEPIRTRVRKSIGRIVTMKRNSRNLEEIKPYLFRAIEESYYKLDKRIPKAIHVVAVTEDLDIVSRGRTFPHGISKETAYSESVKLLQKILEEDERKIRRIGVRFSKFIEAIGLDKFFDT
On to B7, for which the “FANA RT activity” value in the assay with FANA template is “weak RT activity”.

The record behind these values is patent US9914914B2, “Polymerase capable of producing non-DNA nucleotide polymers” (Medical Research Council, priority 2012, dated 2018).
